The source of these data is patent US20220332791A1 (ALIVEGEN, published 2022).

Assay [1] deals with T1, BMP9 (UniProt Q9UK05 320-429).
T1 construct: also called GDF-2
T1 sequence (looked up): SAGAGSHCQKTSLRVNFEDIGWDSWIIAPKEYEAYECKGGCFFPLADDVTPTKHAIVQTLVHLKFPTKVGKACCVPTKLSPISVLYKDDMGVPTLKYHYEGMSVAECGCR
As to the kind of experiment: KinExA, BMP-9-coupled Sepharose beads, trap held constant and ligand titrated. The protocol: (§1) AG-0014 and AG-0027 were analyzed by kinetic exclusion assay (KinExA) (Sapidyne Instruments, Inc.). 20-30 μg/ml of myostatin, activin A or BMP-9 was separately coupled to NHS-Activated Sepharose 4 Fast Flow beads (GE Healthcare) using experimental procedures recommended by Sapidyne Instruments. The concentration for each hybrid ActRIIB ligand trap protein was held constant as the ligand was titrated in a 2.5-fold serial dilution. Solutions were allowed to reach equilibrium by incubation at room temperature up to 24 hours and subsequently passed through a flow cell pre-packed with ligand-coated Sepharose beads on a KinExA 3000 machine (Sapidyne Instruments). The free hybrid ActRIIB ligand trap proteins captured on the beads was detected by Alexa Fluor 647-labeled goat anti-human-Fc antibody (Jackson ImmunoResearch Laboratories, Inc.). The ligand binding affinity values (KD) were calculated using the KinExA Pro software (Sapidyne Instruments).

Assay [2] addresses T2, myostatin (UniProt O14793 267-375).
T2 sequence (looked up): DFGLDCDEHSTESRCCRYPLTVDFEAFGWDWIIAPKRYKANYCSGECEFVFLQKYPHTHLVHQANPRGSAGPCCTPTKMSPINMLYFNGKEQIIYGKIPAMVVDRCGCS
As to the kind of experiment: cell-based or functional assay.

In assay [3] the target is T3, activin A (UniProt P08476 311-426).
T3 sequence (looked up): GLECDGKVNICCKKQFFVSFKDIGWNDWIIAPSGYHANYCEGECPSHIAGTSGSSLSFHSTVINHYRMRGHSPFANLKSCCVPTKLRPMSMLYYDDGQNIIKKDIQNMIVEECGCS
As to the kind of experiment: cell-based or functional assay.

A further assay addresses T4, activin B (UniProt P09529 293-407).
T4 sequence (looked up): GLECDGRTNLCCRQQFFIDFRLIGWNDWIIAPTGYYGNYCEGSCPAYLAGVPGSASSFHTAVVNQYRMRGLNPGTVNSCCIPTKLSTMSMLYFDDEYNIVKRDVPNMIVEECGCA
Description: cell-based or functional assay.

Assay [4] addresses T1, BMP9. Description: cell-based or functional assay.
The target of assay [5] is T2, myostatin. As to the kind of experiment: Octet Red BLI, trap on AHC biosensors, 10 nM myostatin; legend: +++ KD < 10^-8M. The protocol:
(§2) Myostatin and BMP9 binding activities of various hybrid ActRIIB ligand trap proteins were initially analyzed using Octect Red (ForteBio). Purified proteins or conditioned media were individually loaded to AHC biosensors with maximum loading. Following a baseline washing phase, the sensors were exposed to 10 nM myostatin or BMP9, respectively, for an association step followed by a dissociation step. All experiments were performed with shaking at 1,000 rpm. Binding activity was analyzed using ForteBio's software with KD being calculated using the ratio Kd/Ka.

The target of assay [6] is T3, activin A. As to the kind of experiment: KinExA, activin A-coupled Sepharose beads, trap held constant and ligand titrated. The protocol:
as §1

Assay [7] deals with T1, BMP9. Description: cell-based or functional assay. The source holds these as a separate data set.
The target of assay [8] is T2, myostatin. Description: KinExA, myostatin-coupled Sepharose beads, trap held constant and ligand titrated. The protocol: as §1
For assay [9], the target named is T1, BMP9. Description: Octet Red BLI, trap on AHC biosensors, 10 nM BMP9; legend: +++ KD < 10^-8M. On the procedure:
as §2

The target of assay [10] is T3, activin A. Description: cell-based or functional assay. The source holds these as a separate data set.
For assay [11], the target named is T1, BMP9. As to the kind of experiment: Octet Red BLI, trap on AHC biosensors, 10 nM BMP9; legend: + KD 10^-4 - 10^-6M. On the procedure:
as §2

Assay [12] has as its target T2, myostatin. As to the kind of experiment: cell-based or functional assay. The source holds these as a separate data set.
Assay [13] concerns the target T1, BMP9. Description: Octet Red BLI, trap on AHC biosensors, 10 nM BMP9; legend: ++ KD: 10^-6 - 10^-7M. On the procedure:
as §2

Bounds are passed on as bounds.

B1: wild-type ActRIIB-ECD-Fc fusion protein (Fc fusion)
chain: ETRECIYYNANWELERTNQSGLERCEGEQDKRLHCYASWRNSSGTIELVKKGCWLDDFNCYDRQECVATEENPQVYFCCCEGNFCNERFTHLPEAGGPEVTYEPPPTAPTGGGGSESKYGPPCPPCP
notes: also called WT ActRIIB-Fc; WT; not shown: human Fc domain
Turning to B1, the Kd was determined as 0.00425 nM with BMP9 [1], 0.00138 nM in the assay with activin A [6] and 0.00506 nM with myostatin [8]. Further, in the assay with myostatin [2], the “Cell-Based IC50 (nM) Against Myostatin, C2C12-CAGA-luc reporter” value (from here on “Cell-Based IC50 (nM) Against Myostatin”) was 1.24 nM. In addition, in the assay with activin A [3], the “Cell-Based IC50 (nM) Against Activin A, C2C12-CAGA-luc reporter” value worked out at 1.27 nM. Also, the “Cell-Based IC50 (nM) Against Activin B, C2C12-CAGA-luc reporter” value (“Cell-Based IC50 (nM) Against Activin B” for short) with activin B was 1.04 nM. In addition, the “Cell-Based IC50 (nM) Against BMP9, C2C12-BRE-luc reporter” value with BMP9 [4] was 3.4 nM. Besides, the KD with myostatin [5] and with BMP9 [9] was less than 10 nM each time. The “IC50 (read off the curve) (BMP9-induced luciferase, C2C12-BRE-luc reporter cells)” value in the assay with BMP9 [7] is roughly 10 nM. Moreover, the “IC50 (read off the curve) (activin A-induced luciferase, C2C12-CAGA-luc reporter cells)” value with activin A [10] was roughly 4 nM.

B2: hybrid ActRIIB ligand trap protein AG-0005 (SEQ ID NO: 7) (Fc fusion, not shown: a dimerising Fc or GST)
chain: ETRECIYYNANWELERTNQSGLERCEGEQDKRLHCYASWRNSSGTIELVKKGCWLDDFNCYDRTDCVEKKDSPQVYFCCCEGNFCNERFTHLPEAGGPEVTYEPPPTAPTGGGGSESKYGPPCPPCP
Consider B2, for which the KD is less than 10 nM with myostatin [5] and 1000 to 100000 nM with BMP9 [11]. The “IC50 (read off the curve) (myostatin-induced luciferase, C2C12-CAGA-luc reporter cells)” value with myostatin [12] is roughly 1 nM. For the same molecule, the “IC50 (read off the curve) (activin A-induced luciferase, C2C12-CAGA-luc reporter cells)” value in the assay with activin A [10] was roughly 10 nM.

B3: hybrid ActRIIB ligand trap protein AG-0006 (SEQ ID NO: 8) (Fc fusion)
chain: ETRECIYYNANWELERTNQSGLERCEGEQDKRLHCYASWRNSSGTIELVKKGCWLDDFNCYDRTDCVEKKDSPEVYFCCCEGNFCNERFTHLPEAGGPEVTYEPPPTAPTGGGGSESKYGPPCPPCP
notes: not shown: human Fc domain
Turning to B3, the results for the KD with myostatin [5] and with BMP9 [11] were less than 10 nM and 1000 to 100000 nM, respectively.

B4: hybrid ActRIIB ligand trap protein AG-0014 (SEQ ID NO: 16) (Fc fusion)
chain: ETRECIYYNANWELERTNQSGLERCYGDKDKRRHCYASWRNSSGTIELVKKGCWLDDFNCYDRQECVATEENPQVYFCCCEGNFCNERFTHLPEAGGPEVTYEPPPTAPTGGGGSESKYGPPCPPCP
notes: also called Hybrid Trap B; not shown: human Fc domain
As to B4, the “Cell-Based IC50 (nM) Against Myostatin” value with myostatin [2] was found to be 0.95 nM. Also, the “Cell-Based IC50 (nM) Against Activin A, C2C12-CAGA-luc reporter” value with activin A [3] worked out at 1.15 nM. Further, the “Cell-Based IC50 (nM) Against Activin B” value in the assay with activin B came to 2.1 nM. The molecule also gave an equilibrium dissociation constant (KD) with myostatin [5] of less than 10 nM. The Kd with activin A [6] came to 0.000357 nM; with myostatin [8], 0.00875 nM.

B5: hybrid ActRIIB ligand trap protein AG-0003 (SEQ ID NO: 5) (Fc fusion, not shown: a dimerising Fc or GST)
chain: ETRECIYYNANWELERTNQSGLERCEGEQDKRLHCYASWRNSSGTIELVKKGCWLDDINCYDRTDCVEKKDSPEVYFCCCEGNFCNERFTHLPEAGGPEVTYEPPPTAPTGGGGSESKYGPPCPPCP
Take B5: the KD with myostatin [5] was less than 10 nM; with BMP9 [13], 100 to 1000 nM. For the same molecule, in the assay with myostatin [12], the “IC50 (read off the curve) (myostatin-induced luciferase, C2C12-CAGA-luc reporter cells)” value is roughly 0.4 nM. Moreover, in the assay with activin A [10], the “IC50 (read off the curve) (activin A-induced luciferase, C2C12-CAGA-luc reporter cells)” value is roughly 10 nM.

B6: hybrid ActRIIB ligand trap protein AG-0008 (SEQ ID NO: 10) (Fc fusion)
chain: ETRECIYYNANWELERTNQSGLERCEGEQDKRLHCYASWRNSSGTIELVKKGCWLDDFNCYDRQECVEKKDSPQVYFCCCEGNFCNERFTHLPEAGGPEVTYEPPPTAPTGGGGSESKYGPPCPPCP
notes: not shown: human Fc domain
Consider B6, for which the KD is less than 10 nM with myostatin [5] and 100 to 1000 nM with BMP9 [13].

B7: hybrid ActRIIB ligand trap protein AG-0007 (SEQ ID NO: 9) (Fc fusion)
chain: ETRECIYYNANWELERTNQSGLERCEGEQDKRLHCYASWRNSSGTIELVKKGCWLDDFNCYDRQECVEKKDSPEVYFCCCEGNFCNERFTHLPEAGGPEVTYEPPPTAPTGGGGSESKYGPPCPPCP
notes: not shown: human Fc domain
Turning to B7, the KD with myostatin [5] was less than 10 nM; in the assay with BMP9 [11], 1000 to 100000 nM.

B8: hybrid ActRIIB ligand trap protein AG-0027 (SEQ ID NO: 29) (Fc fusion)
chain: ETRECIYYNANWELERTNQSGLERCEGDQDKRLHCYASWRNSSGTIELVKKGCWLDDINCYDRQECVATKENPQVYFCCCEGNFCNERFTHLPEAGGPEVTYEPPPTAPTGGGGSESKYGPPCPPCP
notes: also called Hybrid Trap A; Hybrid Trap; not shown: human Fc domain
Regarding B8, the “Cell-Based IC50 (nM) Against Myostatin” value with myostatin [2] came out at 1.14 nM. In addition, the “Cell-Based IC50 (nM) Against Activin A, C2C12-CAGA-luc reporter” value in the assay with activin A [3] stood at 1.62 nM. Besides, in the assay with activin B, the “Cell-Based IC50 (nM) Against Activin B” value worked out at 1.3 nM. Moreover, the KD with myostatin [5] is less than 10 nM. The results for the Kd in the assay with activin A [6] and with myostatin [8] were 0.00109 nM and 0.00787 nM, respectively.
